This passage reports % of Y2H colonies expressing the reporter genes results from publication PMC9635645.

The target of the test is GAL4 DBD-BEAF-32B (Drosophila). The test is described as follows: two-hybrid; GAL4 AD fusions (pOAD) against GAL4 DBD fusions (pOBD2) in yeast; 50 to 100 colonies with both plasmids scored for growth on medium lacking adenine and histidine, with X-α-Gal.
GAL4 DBD-BEAF-32B (Drosophila), sequence (main, as listed by the source): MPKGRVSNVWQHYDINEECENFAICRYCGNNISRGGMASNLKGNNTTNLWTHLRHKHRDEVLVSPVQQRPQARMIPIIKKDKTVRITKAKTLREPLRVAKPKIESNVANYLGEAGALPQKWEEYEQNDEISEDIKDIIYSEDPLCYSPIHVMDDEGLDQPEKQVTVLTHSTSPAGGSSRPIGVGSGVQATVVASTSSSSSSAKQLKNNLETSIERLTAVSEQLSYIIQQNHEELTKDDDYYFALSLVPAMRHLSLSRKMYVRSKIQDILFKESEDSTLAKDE

For GAL4 AD-Pbro BD4–5 (domain or fragment), the % of Y2H colonies expressing the reporter genes came out at 20%.
